Key:
[1] = biological target: HLA-DR1 (HLA-DRα*0101 and HLA-DRβ1*0101); assay: in vitro competition assay (HLA-DR1 peptide binding); conditions: chain shown with the change
[2] = biological target: HLA-DR1 (HLA-DRα*0101 and HLA-DRβ1*0101) (human); assay: ELISA; competitive peptide-binding assay: test peptide 10^-4-10^-10 M against 4.5 nM biotinylated CLIP 99-117 marker peptide for 0.1 μg refolded HLA-DR1-CLIP 105-117; 20 mM MES, 140 mM NaCl, 0.02% NaN3, pH 5, overnight at 37 °C; HLA-DR1 captured on anti-DR L243, bound marker detected with streptavidin-HRP; % competitive inhibition, four-parameter fit

FARRPPLAELAAANLSGSRL [5T4_(111–130) 20-mer peptide L7A]
IC50 [1]: 725 nM

FARRPPLAELAALNLSGSRL [5T4_(111–130) 20-mer peptide]
IC50 [2]: 176 nM

FARRPPLAELAALALSGSRL [5T4_(111–130) 20-mer peptide N8A]
IC50 [1]: 144 nM

FARRPPLAELAALNLSRSRL [5T4_(111–130) 20-mer peptide G11R]
IC50 [1]: 255 nM
